The target of assay [1] is SARS-CoV-2 spike (S) protein, recombinant (SARS-CoV-2) (UniProt P0DTC2).
Assay [2] shares this target. This is another data set of the same source.

In the case of CC12.1 (antibody), the in vitro IC50 neutralization against pseudovirus; pair blocked: S with ACE2 in assay [1] came out at 0.019 µg/mL. As to CC6.33 (antibody), in assay [2], the neutralization IC50 of SARS-CoV-2 pseudovirus (complete neutralization) was 0.039 µg/mL.

With CC12.23 (antibody), the IC50 neutralization (pseudovirus) in assay [1] came to 22 µg/mL.

For the origin of these results see publication PMC7299280.
